We go through 39 sequences from the supplement of paper PMC7877785.

± gives the uncertainty stated by the source.

The data set in a line: self-splicing fitness, log relative to wild type (ln ratio); higher = more splicing; Tetrahymena group I intron in knt gene, E. coli kanamycin selection, DiMSum; sequences stand for … in CUCUCU…GGAGGGAAAAGUUAUCAGGCAUGCACCUGGUAGCUAGUCUUUAAACCAAUAGAUUGCAUCGGUUUAAAAGGCAAGACCGUCAAAUUGCGGGAAAGGGGUCAACAGCCGUUCAGUACCAAGUCUCAGGGGAAACUUUGAGAUGGCCUUGCAAAGGGUAUGGUAAUAAGCUGACGGACAUGGUCCUAACCACGCAGCCAAGUCCUAAGUCAACAGAUCUUCUGUUGAUAUGGAUGCAGUUCACAGACUAAAUGUCGGUCGGGGAAGAUGUAUUCUUCUCAUAAGAUAUAGUCGGACCUCUCCUUAAUGGGAGCUAGCGGAUGAAGUGAUGCAACACUGGAGCCGCUGGGAACUAAUUUGUAUGCGAAAGUAUAUUGAUUAGUUUUGGAGUACUCGUGGUCG
A digest of the protocol:
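A randomised library covering all eight P1ex-region intron nucleotides was built with the intron in the knt kanamycin-resistance gene on pET-22b(+) and held in E. coli BL21(DE3). Cells were grown overnight at 37°C or 30°C on LB agar, with or without 25 μg/mL kanamycin, plus 100 μg/mL carbenicillin, 50 μM IPTG and 0.2% rhamnose, and pooled colonies were amplicon-sequenced on an Illumina HiSeq 2500. DiMSum fitness is the error-weighted combination of wild-type-normalised replicate fold changes, kanamycin versus none.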

Take UUCCAGCAAUAUUACGGUCA: the “self-splicing fitness (ln)” value runs as follows: (30 °C) -0.23 ± 0.084; (37 °C) 0.239 ± 0.1.
Take CCGAAGCAAUAUUACGAACU: the “self-splicing fitness (ln)” value is -3.08 ± 0.29 (30 °C) and -2.17 ± 0.46 (37 °C).
For CAAAAGCAAUAUUACGAUAC, the “self-splicing fitness (ln)” value reads like this: (30 °C) -2.95 ± 0.15; (37 °C) -2.53 ± 0.2.
For the sequence CUCAAGCAAUAUUACGAGGU, where the note is “37 °C”, the “self-splicing fitness (ln)” value is -1.19 ± 0.18.
Regarding AUACAGCAAUAUUACGGAUC, the “self-splicing fitness (ln)” value reads like this: (30 °C) -3.54 ± 0.23; (37 °C) -2.53 ± 0.23.
On the same counts, the results for ACCUAGCAAUAUUACGCCUC are -1.88 ± 0.13 and -1.51 ± 0.15.
As for GAAAAGCAAUAUUACGGUCG, the “self-splicing fitness (ln)” value is, setting by setting: (30 °C) -0.446 ± 0.065; (37 °C) -0.0366 ± 0.1.
In the case of GAUUAGCAAUAUUACGUCCU, the “self-splicing fitness (ln)” value was -1.08 ± 0.14 (30 °C) and -0.47 ± 0.18 (37 °C).
Regarding AAUCAGCAAUAUUACGCCAC, the “self-splicing fitness (ln)” value reads like this: (30 °C) -3.91 ± 0.21; (37 °C) -3.78 ± 0.39.
For the sequence CACAAGCAAUAUUACGACAG, the “self-splicing fitness (ln)” value by setting is: (30 °C) 0.0654 ± 0.065; (37 °C) 0.61 ± 0.083.
With AACGAGCAAUAUUACGUGCC, the “self-splicing fitness (ln)” value is -3.37 ± 0.27 (30 °C) and -1.85 ± 0.3 (37 °C).
Regarding AGUUAGCAAUAUUACGACUC, the “self-splicing fitness (ln)” value is, setting by setting: (30 °C) -2.36 ± 0.32; (37 °C) -1.83 ± 0.38.
Take ACUAAGCAAUAUUACGUUUC: the “self-splicing fitness (ln)” value is -4.35 ± 0.26 (30 °C) and -1.85 ± 0.19 (37 °C).
Take GGACAGCAAUAUUACGGCUU: the “self-splicing fitness (ln)” value runs as follows: (30 °C) -0.36 ± 0.11; (37 °C) 0.07 ± 0.11.
GACCAGCAAUAUUACGCGCG: the “self-splicing fitness (ln)” value (30 °C) was -0.501 ± 0.061 and the “self-splicing fitness (ln)” value (37 °C) was 0.0713 ± 0.078.
With CUAGAGCAAUAUUACGCCGA, the “self-splicing fitness (ln)” value (37 °C) was -2.06 ± 0.43.
For AAUUAGCAAUAUUACGCGUG, the “self-splicing fitness (ln)” value is, setting by setting: (30 °C) -0.374 ± 0.066; (37 °C) -0.101 ± 0.083.
AUGGAGCAAUAUUACGCGAA: the “self-splicing fitness (ln)” value (30 °C) was -1.66 ± 0.31 and the “self-splicing fitness (ln)” value (37 °C) is -2.36 ± 0.29.
For the sequence AAUCAGCAAUAUUACGCUGC, the “self-splicing fitness (ln)” value (30 °C) was -3.58 ± 0.26 and the “self-splicing fitness (ln)” value (37 °C) is -2.36 ± 0.19.
In the case of CGGUAGCAAUAUUACGGAUA, the “self-splicing fitness (ln)” value (37 °C) is -1.54 ± 0.3.
With GUGCAGCAAUAUUACGAGUG, the “self-splicing fitness (ln)” value was -2.2 ± 0.15 (30 °C) and -2.11 ± 0.17 (37 °C).
CGUCAGCAAUAUUACGACUU: the “self-splicing fitness (ln)” value is -0.191 ± 0.069 (30 °C) and 0.132 ± 0.08 (37 °C).
For the sequence GAGUAGCAAUAUUACGGGGA, the “self-splicing fitness (ln)” value was -2.51 ± 0.14 (30 °C) and -2.45 ± 0.2 (37 °C).
As to AAGAAGCAAUAUUACGUCUU, the “self-splicing fitness (ln)” value (30 °C) is -2.83 ± 0.15 and the “self-splicing fitness (ln)” value (37 °C) was -1.63 ± 0.14.
For the sequence UAUCAGCAAUAUUACGCAUG, the “self-splicing fitness (ln)” value runs as follows: (30 °C) -1.1 ± 0.082; (37 °C) 0.181 ± 0.099.
AGAUAGCAAUAUUACGAUUU: the “self-splicing fitness (ln)” value reads like this: (30 °C) -0.348 ± 0.084; (37 °C) 0.527 ± 0.11.
With GCAGAGCAAUAUUACGUGCG, the “self-splicing fitness (ln)” value (30 °C) is -2.76 ± 0.096 and the “self-splicing fitness (ln)” value (37 °C) is -0.667 ± 0.1.
As to GAGUAGCAAUAUUACGUAGG, the “self-splicing fitness (ln)” value runs as follows: (30 °C) -3.9 ± 0.24; (37 °C) -1.81 ± 0.17.
With GGCGAGCAAUAUUACGUCUA, the “self-splicing fitness (ln)” value is -1.86 ± 0.19 (30 °C) and -0.451 ± 0.15 (37 °C).
Turning to CACAAGCAAUAUUACGUCAG, the “self-splicing fitness (ln)” value is -1.25 ± 0.051 (30 °C) and -0.508 ± 0.064 (37 °C).
CCUUAGCAAUAUUACGUCUG: the “self-splicing fitness (ln)” value reads like this: (30 °C) -2.99 ± 0.1; (37 °C) -1.48 ± 0.096.
Take UUCGAGCAAUAUUACGUGAC: the “self-splicing fitness (ln)” value was -3.65 ± 0.24 (30 °C) and -3.28 ± 0.27 (37 °C).
As for UUUUAGCAAUAUUACGACGC, the “self-splicing fitness (ln)” value is -2.17 ± 0.31 (30 °C) and -1.56 ± 0.28 (37 °C).
For UGACAGCAAUAUUACGUCAA, the “self-splicing fitness (ln)” value was -2.37 ± 0.18 (30 °C) and -0.896 ± 0.11 (37 °C).
GUUUAGCAAUAUUACGUGCC: the “self-splicing fitness (ln)” value (30 °C) was -2.91 ± 0.36.
On the same count and under the same terms, the result for UAGAAGCAAUAUUACGGUAC reads -3.25 ± 0.37.
Consider CCUUAGCAAUAUUACGUGAG, for which the “self-splicing fitness (ln)” value reads like this: (30 °C) -1.35 ± 0.068; (37 °C) 0.0439 ± 0.088.
As to GCUAAGCAAUAUUACGCGGG, the “self-splicing fitness (ln)” value by setting is: (30 °C) -3.54 ± 0.2; (37 °C) -0.902 ± 0.13.
In the case of UACUAGCAAUAUUACGGAAU, the “self-splicing fitness (ln)” value (30 °C) is -4.58 ± 0.39 and the “self-splicing fitness (ln)” value (37 °C) is -2.95 ± 0.23.
